Positions count from the first letter of the chain named. Names and notes keep the numbering of the source.
Legend:
[1] = molecular target: DnaD^L22A, purified recombinant (B. subtilis) (UniProt P39787); experiment: SEC-MALS; 20°C; 40 mM Tris-HCl pH 8, 500 mM NaCl, 1 mM EDTA, 20 mM imidazole, 2.5% glycerol; 100 μl injected
[2] = molecular target: the molecule itself; experiment: cross-linking; BS3, 250 nM protein, 500x molar excess BS3, 6 min at 20°C, 20 mM HEPES pH 7.2, 100 mM NaCl, 10 mM magnesium acetate; SDS-PAGE and anti-DnaD immunoblot
[3] = molecular target: the molecule itself; experiment: SEC-MALS; 20°C; 40 mM Tris-HCl pH 8, 500 mM NaCl, 1 mM EDTA, 20 mM imidazole, 2.5% glycerol; 100 μl injected

DnaD^L22A, purified recombinant (from UniProt P39787 1-232) (natural protein)
percent present as monomer [1]: > 50%
stoichiometry N [1]: 4

B1: DnaD^F6A, purified recombinant (natural protein, B. subtilis, UniProt P39787 1-232, looked up)
chain: MKKQQAIDMQEQGTSTIPNLLLTHYKQLGLNETELILLLKIKMHLEKGSYFPTPNQLQEGMSISVEECTNRLRMFIQKGFLFIEECEDQNGIKFEKYSLQPLWGKLYEYIQLAQNQTQERKAEGEQKSLYTIFEEEFARPLSPLECETLAIWQDQDQHDAQLIKHALKEAVLSGKLSFRYIDRILFEWKKNGLKTVEQAKIHSQKFRRVQAKQNEPQKEYKRQVPFYNWLEQ
notes: DnaD, B. subtilis 168CA, with F6A; made from pSF17 by Quickchange; source: E. coli BL21(DE3)-pLysS, purified (HisTrap, SUMO protease digestion, reverse HisTrap)
stoichiometry N [2]: 2

B2: DnaD^K3A, purified recombinant (natural protein, B. subtilis, UniProt P39787 1-232, looked up)
chain: B1 chain with K3A, A6F
notes: DnaD, B. subtilis 168CA, with K3A; made from pSF17 by Quickchange; source: E. coli BL21(DE3)-pLysS, purified (HisTrap, SUMO protease digestion, reverse HisTrap)
stoichiometry N [2]: 2

B3: DnaD, wild type, purified recombinant (natural protein, B. subtilis, UniProt P39787 1-232, looked up)
chain: B1 chain with A6F
notes: DnaD, B. subtilis 168CA; dnaD amplified from genomic DNA and cloned into pSF17; The printed theoretical mass of the tetramer (110 kDa) fits the whole protein; also called Wild-type DnaD; source: E. coli BL21(DE3)-pLysS, purified (HisTrap, SUMO protease digestion, reverse HisTrap)
stoichiometry N [3]: 4

Source: paper PMC10201431, “SirA inhibits the essential DnaA:DnaD interaction to block helicase recruitment during Bacillus subtilis sporulation” (Nucleic Acids Research, 2022)
